Substrate in this data set: COC1=C(OC)C(=O)C(C/C=C(\C)CC/C=C(\C)CC/C=C(\C)CC/C=C(\C)CC/C=C(\C)CC/C=C(\C)CC/C=C(\C)CC/C=C(\C)CC/C=C(\C)CCC=C(C)C)=C(C)C1=O
The data set is described as follows: NADH:O2 oxidoreduction in Q10 proteoliposomes, Michaelis-Menten fit. Format: biochemical, Bos taurus. The note with it: 200 μM NADH, 15 μg/mL alamethicin, 10 mM Tris-SO4 pH 7.5, 50 mM KCl, 32 °C, excess AOX reoxidizes Q10H2, membrane-phase concentration, stated as approximately 3.9 mM Q10 in the membrane phase.

B1: complex I (NADH:ubiquinone oxidoreductase, CI) (Bos taurus) (protein)
chain 1: ARQWQPDVEWAEQYGGAVMYPTKETAHWKPPPWNDVDPPKDTLVSNLTLNFGPQHPAAHGVLRLVMELSGEMVRKCDPHIGLLHRGTEKLIEYKTYLQALPYFDRLDYVSMMCNEQAYSLAVEKLLNIQPPPRAQWIRVLFGEITRLLNHIMAVTTHALDIGAMTPFFWMFEEREKMFEFYERVSGARMHAAYVRPGGVHQDLPLGLMDDIYEFSKNFSLRIDELEEMLTNNRIWRNRTVDIGIVTAEDALNYGFSGVMLRGSGIQWDLRKTQPYDVYDQVEFDVPIGSRGDCYDRYLCRVEEMRQSIRIISQCLNKMPPGEIKVDDAKVSPPKRAEMKTSMESLIHHFKLYTEGYQVPPGATYTAIEAPKGEFGVYLVSDGSSRPYRCKIKAPGFAHLAGLDKMSKGHMLADVVAIIGTQDIVFGEVDR
chain 2: not shown
chain 3: not shown
notes: native complex purified from heart mitochondria, detergent-solubilized, reconstituted into proteoliposomes with Q10 and AOX; with NADH dehydrogenase [ubiquinone] flavoprotein 1, mitochondrial; NADH dehydrogenase [ubiquinone] flavoprotein 2, mitochondrial; NADH-ubiquinone oxidoreductase 75 kDa subunit, mitochondrial; NADH dehydrogenase [ubiquinone] iron-sulfur protein 3, mitochondrial; NADH …
A word on the kcat: it is the number of substrate molecules converted per active site and unit of time at saturation. As to B1, the kcat stood at 500 s⁻¹.

Source of the values: PMC4954055, “A Self‐Assembled Respiratory Chain that Catalyzes NADH Oxidation by Ubiquinone‐10 Cycling between Complex I and the Alternative Oxidase” (Angewandte Chemie (International Ed. in English), 2015).
